Molecular target: T1, Rhesus GIPR (rhesus, UniProt F7E1R9 22-466)
T1 sequence: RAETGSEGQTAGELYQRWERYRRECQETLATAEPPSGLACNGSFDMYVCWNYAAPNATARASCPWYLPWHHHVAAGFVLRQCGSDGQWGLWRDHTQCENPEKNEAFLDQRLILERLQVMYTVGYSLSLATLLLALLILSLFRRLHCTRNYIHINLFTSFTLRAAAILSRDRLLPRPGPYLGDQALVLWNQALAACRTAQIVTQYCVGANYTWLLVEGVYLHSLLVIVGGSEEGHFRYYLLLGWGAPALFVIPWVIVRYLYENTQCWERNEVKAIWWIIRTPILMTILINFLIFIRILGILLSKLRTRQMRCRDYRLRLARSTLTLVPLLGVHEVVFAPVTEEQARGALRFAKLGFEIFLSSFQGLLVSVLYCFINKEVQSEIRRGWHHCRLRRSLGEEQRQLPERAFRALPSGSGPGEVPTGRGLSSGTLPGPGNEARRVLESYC
Test: cell-based or functional assay

| Binder | Rhesus GIPR CAMP Assay (Conc. mAb @ 60% Inhibition in nM) [nM] |
| --- | --- |
| 18F2.012 (antibody, human IgG1, kappa, N297G, V domains shown) VH: not shown VL: DIQMTQSPSSLSASIGDRVTITCRASQDLRNYLGWYQQKPGKAPKLLIYGASSLQSGVPSRFSGSGSGTEFTLTISSLQPEDFATYYCLQHNNYPFTFGPGTKVDIKR | 1.88 |
| 4B1 (antibody, human IgG1, kappa, N297G, V domains shown) VH: QVQLVESGGGVVQPGRSLRLSCAASGFTFSNFGMHWVRQAPGKGLEWVAVIWYDGSNENYADSVKGRFTISRDNSKNTLYLHMNSLRVADTAVYYCARDGTIFGVVLGDYWGQGTLVTVSS VL: DIQMTQSPSSLSASIGDRVTITCRASQDIRDYLGWYQQKPGKAPKRLIYGASSLQSGVPSRFSGSGSGTEFTLTISSLQPEDFATYYCLQHNNYPFTFGPGTKVDIKR | 0.67 |
| 4B1.011 (antibody, human IgG1, kappa, N297G, V domains shown) VH: not shown VL: DIQMTQSPSSLSASIGDRVTITCRASQDIRDYLGWYQQKPGKAPKRLIYGASSLQSGVPSRFSGSGSGTEFTLTISSLQPEDFATYYCLQHNNYPFTFGQGTKVDIKR | 0.51 |
| 4B1.013 (antibody, human IgG1, kappa, N297G, V domains shown) VH: QVQLVESGGGVVQPGRSLRLSCAASGFTFSNFGMHWVRQAPGKGLEWVAVIWYDASNENYADSVKGRFTISRDNSKNTLYLHMNSLRVADTAVYYCARDGTIFGVVLGDYWGQGTLVTVSS VL: DIQMTQSPSSLSASIGDRVTITCRASQDIRDYLGWYQQKPGKAPKLLIYGASSLQSGVPSRFSGSGSGTEFTLTISSLQPEDFATYYCLQHNNYPFTFGQGTKVDIKR | 1.35 |
| 4B1.014 (antibody, human IgG1, kappa, N297G, V domains shown) VH: QVQLVESGGGVVQPGRSLRLSCAASGFTFSNFGMHWVRQAPGKGLEWVAVIWYDGSNENYADAVKGRFTISRDNSKNTLYLHMNSLRVADTAVYYCARDGTIFGVVLGDYWGQGTLVTVSS VL: DIQMTQSPSSLSASIGDRVTITCRASQDIRDYLGWYQQKPGKAPKLLIYGASSLQSGVPSRFSGSGSGTEFTLTISSLQPEDFATYYCLQHNNYPFTFGQGTKVDIKR | 0.95 |
| 4B1.015 (antibody, human IgG1, kappa, N297G, V domains shown) VH: not shown VL: DIQMTQSPSSLSASIGDRVTITCRASQDIRDYLGWYQQKPGKAPKLLIYGASSLQSGVPSRFSGSGSGTEFTLTISSLQPEDFATYYCLQHNNYPFTFGQGTKVDIKR | 0.84 |
| 4B1.016 (antibody, human IgG1, kappa, N297G, V domains shown) VH: not shown VL: DIQMTQSPSSLSASIGDRVTITCRASQDIRDYLGWYQQKPGKAPKLLIYGASSLQSGVPSRFSGSGSGTEFTLTISSLQPEDFATYYCLQHNNYPFTFGQGTKVDIKR | 1.57 |
| 4H9.004.001 (antibody, human IgG1, kappa, N297G) heavy: not shown light: DIQMTQSPSSLSASVGDRVTITCRASQGIRNELGWYQQKPGKAPKLLIYGASSLQSGVPSRFSGSGSGTEFTLTISSLQPEDFVTYYCLQHNSYPFTFGQGTKVDVKRTVAAPSVFIFPPSDEQLKSGTASVVCLLNNFYPREAKVQWKVDNALQSGNSQESVTEQDSKDSTYSLSSTLTLSKADYEKHKVYACEVTHQGLSSPVTKSFNRGEC | 0.43 |
| 4H9.004.004 (antibody, human IgG1, kappa, N297G) heavy: not shown light: DIQMTQSPSSLSASVGDRVTITCRASQGIRNELGWYQQKPGKAPKLLIYGASSLQSGVPSRFSGSGSGTEFTLTISSLQPEDFVTYYCLQHNSYPFTFGPGTKVDVKRTVAAPSVFIFPPSDEQLKSGTASVVCLLNNFYPREAKVQWKVDNALQSGNSQESVTEQDSKDSTYSLSSTLTLSKADYEKHKVYACEVTHQGLSSPVTKSFNRGEC | 0.44 |
| 6H1.002 (antibody, human IgG1, kappa, N297G, V domains shown) VH: not shown VL: DIQMTQSPSSLSASIGDRVTITCRASQDIRDYLGWYQQKPGKAPKRLIYGASSLQSGVPSRFSGSGSGTEFTLTISSLQPEDFATYYCLQHNNYPFTFGPGTKVDIKR | 0.31 |

— US20250376529A1 (Amgen, published 2025)
